Laboratory results from the supplement of paper PMC12764529.
± gives the half width of the 95% confidence interval.

Assays:
[1] = folding stability dG unfold (combined trypsin and chymotrypsin); higher = more stable
How it was run: (§1)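 K50 was inferred by Bayesian fitting of sequencing counts obtained after protease digestion of designed mini-proteins. Unfolding free energy was derived by comparison with a sequence-predicted unfolded-state K50 and a shared folded-state K50, for each protease or both combined. The mini-proteins were under 80 residues, had no cysteine, were carried in a PA-tagged cDNA display construct, and were kept only if AlphaFold2 dimer inter-PAE exceeded 15.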

[2] = folding stability dG unfold from chymotrypsin proteolysis; higher = more stable
How it was run: as §1

[3] = folding stability dG unfold from trypsin proteolysis; higher = more stable
How it was run: as §1

Sequence	folding stability dG unfold [1] [kcal/mol]	folding stability dG unfold [2] [kcal/mol]	folding stability dG unfold [3] [kcal/mol]
SAGGSAKGLKVTFSHPDVEILSVKSYPGLGLAEVEFRYGDKLYRALVRFEPDDGGIAEATVEPVPGSAGGSA [r15_297_TrMRF]	2.55 ± 0.079	2.844 ± 0.026	1.58 ± 0.024
SVIIYMPWDNIPNMLRQLKALAKNGQKPVTIYMPVPEDWRRELREWLDDYGITVEPHPDNDWYKIEIEPKSA [r9_600_TrROS]	3.09 ± 0.077	3.318 ± 0.0095	2.54 ± 0.069
SAGGSFLVPTSSMEEAEEIKNAVLAGEPVTVTPPDGVPVTVKAKSVEVDPETGKVRIIDPSGEKLALSAGGS [r16_254_JUSTAS]	0.379 ± 0.1	0.414 ± 0.095	0.201 ± 0.14
SAGGSAGGSAGMAIGLEEILARLDPERIISVEVDEENPLVTVKLRPPSGETKTITFKLSLSAGGSAGGSAGG [r17_374_JUSTAS]	1.06 ± 0.07	0.669 ± 0.11	1.21 ± 0.03
SAGGSAGGGAVVLEEAFDPVRPERLVLVEVVNEKGEPFRFPVPLEDLEAVFEKLPPGFPVLVLPSAGGSAGG [r6_111_TrMRF]	0.36 ± 0.048	0.135 ± 0.1	0.491 ± 0.021
SAMTKEEAKENGHIYIMVKIEVTWPNGGKREFPIFFPFPSLDEAKEQIRSFFRRMNFKVKIDDISIFPVSAG [r14_854_TrROS]	3.53 ± 0.049	3.745 ± 0.027	2.98 ± 0.048
SAGGSAGGSPPDFVIQPEVEHTRDPENGKHEATVKIEIMDGRPIEIPFKSPEDAEDAIKELINSAGGSAGGS [r12_389_TrROS]	0.829 ± 0.13	0.382 ± 0.098	1.14 ± 0.079
SAGGKIKIKINGKTYTVEDAEIIEVKKNKNGKKEIIIKIKVNGKTYEIVISEEDLKKIKPGDTITLKSAGGS [r16_638_TrROS_Hall]	2.96 ± 0.059	3.19 ± 0.045	2.4 ± 0.053
SAGGSAGGNVILVETGPDGRARVLVFDPETGKVTEYEVPADDLDAIEAIAADKVDLVIVRPVGPSAGGSAGG [r6_639_TrMRF]	2.07 ± 0.11	2.23 ± 0.028	1.75 ± 0.059
SAGGSAGGSAGSMTLSTSTSTTPTSLTTTTTTTTYDPTTGTTTTTSTTTTTALPAAPPSSTASAGGSAGGSA [r18_16_JUSTAS]	1.37 ± 0.13	1.64 ± 0.03	0.0685 ± 0.064
SAGGSAGGSAGGMTTTTTAPESGDLVTIHPEKGIAVVTSPEGKVTEVPIDPDDYSVEPASAGGSAGGSAGGS [r10_568_JUSTAS]	1.19 ± 0.12	1.57 ± 0.079	0.343 ± 0.076
SAGGSMKTITDPGNLSEEEIKKILSKFPPNTTVTIEFPDATHTVTLNPDKIEISRDPSYPNFRITITISSAG [r5_373_JUSTAS]	1.72 ± 0.1	2.01 ± 0.036	1.31 ± 0.029
SAGGSAGGSAGGSGMTTTLLEQREFTLPNGEPVRVTVARFPGGEIVTETEDGVVTTDPLSAGGSAGGSAGGS [r4_111_JUSTAS]	0.159 ± 0.08	0.281 ± 0.08	-0.134 ± 0.064
SALKISVTVDPDGPTATATLELYNPETGKPTTLTATIHRLPDGSYLVTIHFPSNNKTITFTVPEDGVITLSA [r9_1220_TrMRF]	3.03 ± 0.12	3.48 ± 0.038	2.38 ± 0.09
SAGGSATVEVATEPDGTVTVTTLETDPAEPRGTVTTTTVTVTTEPTPEPFLSSSTTTTTTATAPAPSAGGSA [r15_438_JUSTAS]	-0.0573 ± 0.059	-0.291 ± 0.075	0.138 ± 0.048
SAGGMVVTEEGDKTYITVRVPAPPGLPPEAVAAEIRERYGLSDLEVLEVEALPDGTLVVRLRDSTPASAGGS [r16_234_JUSTAS]	2.55 ± 0.044	2.554 ± 0.021	2.55 ± 0.074
SMPLLVKVDTPEQREKLLKVLEEIEKETDIKIELVSEHPDGKYEFLIEAPLEEAVKIAKKLKEAGNVEIVSA [r9_472_TrMRF]	3.7 ± 0.1	3.48 ± 0.12	3.89 ± 0.19
SAGGEMELTLTVTIKVENLTKEQIEEELRKLLEELGFEIEEITVEYDEENKTITVTVRIRLPPLEDLSAGGS [r16_287_TrROS_Hall]	3.15 ± 0.25	2.98 ± 0.23	3.15 ± 0.27
SAGGSAGGSAGPVTITIKVPKEDEEEIEALARELAAALPPPEGAKVTVERNEDGTITITLSAGGSAGGSAGG [r17_324_TrROS_Hall]	1.62 ± 0.12	1.6 ± 0.06	1.56 ± 0.15
SAGGSAGGSAGGGMPSYVTKTTTTTVKITNTTTGGNSTTTTTSTVTVTTTTLLPPGLLASAGGSAGGSAGGS [r10_300_JUSTAS]	0.835 ± 0.074	1.2 ± 0.028	-0.147 ± 0.052
SAGGSAGGSASVKVEEKPTEIVITTKSPSPVITVETIPLSPDGVPVGKKTTTISLPPKDIILSAGGSAGGSA [r18_300_JUSTAS]	-0.719 ± 0.47	-0.778 ± 0.15	-0.3 ± 0.11

Sequence	folding stability dG unfold [1] [kcal/mol]	folding stability dG unfold [2] [kcal/mol]	folding stability dG unfold [3] [kcal/mol]
SAMPAENMTPEEAAELALAYVERFRAEVEALGGPIPADTEIVVPVTLEGPPVEIKITFINPDEVEVEVASAG [r14_501_TrMRF]	1.34 ± 0.17	1.17 ± 0.09	1.46 ± 0.15
SAGGPKKRKWVTFTIDIYIPTPPGQSIEDEARKLAENLGIEITDVEVEPHPNGMVKIDVTVTIWIPYSAGGS [r8_292_TrROS]	3.91 ± 0.13	4.37 ± 0.097	2.84 ± 0.062
PFRVMVDLERDPEDGWYKVTIMVQAKDGRPITPELIENAAREIFKQGFPIKKIKLEPYPNGYVHFKIEIPLS [r1_408_TrROS]	2.65 ± 0.064	2.88 ± 0.037	2.15 ± 0.035
SAGGSAPRVVRVETVTLTPPADSTVTARLLRLETPEGPRYVLAVRDPSTPVVVARPVPEGATLLEESAGGSA [r15_75_TrMRF]	-0.237 ± 0.11	-0.124 ± 0.1	-0.581 ± 0.23
SAGGSAGGSMIVVPESVSPEEAEATARQVAQELGISPDTPLEVEIKEVKTGENSVYEIRVTLRSAGGSAGGS [r12_252_JUSTAS]	0.199 ± 0.092	0.19 ± 0.13	0.097 ± 0.056
SAGGSAGGGWITIPIYIIKMKRTRRDPDGKPKPLDPNDPEDFEVVPPRPFRIPLPPEEAKKLLKSAGGSAGG [r6_219_TrROS]	-0.434 ± 0.24	-0.464 ± 0.43	-0.542 ± 0.32
SAAPADNPVLVATLTVTVTRPVSFTSPDGSTGTVPETETRTLVLVADAGNDPEALERALELARRLAETVSAG [r14_830_TrMRF]	3.51 ± 0.099	4.04 ± 0.076	2.73 ± 0.076
SANDDDWVTVIFEIPIVRKDPDGKPEKHPFRLMVQVHPDGRVEINIMYPNGRPIASQTVPPGQTLEDFISAG [r14_559_TrROS]	3.38 ± 0.23	3.84 ± 0.077	2.63 ± 0.13
SAGGKKIEIEIVFKEGEKAPSAEEIAKKLLEEIPNIKITSIEIVDVEYDEETGEKYVVVKITIEVEPPSAGG [r13_10_TrROS_Hall]	3.17 ± 0.28	3.14 ± 0.14	2.96 ± 0.18
SAGGMEPIEIPAKVKITHNGKEQEYPLENVTIWPMPDGMYMIYNPDKGEMFFINPKNGRLMRIEIDDSAGGS [r16_721_TrROS]	1.99 ± 0.19	2.5 ± 0.15	0.94 ± 0.092
SAGGSAGGSAGNLKPVSGGGVLKVEVKDPNTDKKETYLVPPNKPDVVLELAKDGYEVEVSSAGGSAGGSAGG [r11_1006_TrMRF]	0.639 ± 0.14	0.227 ± 0.14	0.938 ± 0.11
SAGGSAGGSAGGSFEVVSVDETVTVPPGATVTIVVRDENGKLLTFTFEVRLVPPPPEEESAGGSAGGSAGGS [r10_573_TrROS_Hall]	1.86 ± 0.18	1.95 ± 0.072	1.58 ± 0.1
SAGGMLLKLPLSSVEIPPDASEEEIEEAKRKLAKPKVVKVTEEVLIEENGIVKKVKVTKYVSLSVEESAGGS [r16_387_JUSTAS]	0.87 ± 0.12	0.56 ± 0.29	0.845 ± 0.082
SAGGSAGGSAGMDIPLTFTAPNADGQPVKVRVEKIIPEKGYLLVRVEYPDDREETFLDPFSAGGSAGGSAGG [r11_742_TrMRF]	-0.0666 ± 0.08	-0.167 ± 0.13	-0.118 ± 0.14
SAGGSMSPALNKKLDVEEITADEEEAKKIAKESKKPVIVTLPDGTVLRFNTDGSVTEYPLPPPELLSAGGSA [r2_34_JUSTAS]	0.958 ± 0.12	1.12 ± 0.12	0.443 ± 0.07
SAGGSAGGSAGPEWYVVMRVENPGTGKEVHFIGPWDDFKEKLPPSNVKMEWHLIPADALKSAGGSAGGSAGG [r11_334_TrROS]	0.494 ± 0.061	0.666 ± 0.06	0.0887 ± 0.066
SAGGGQTIEIKFPVPNENYRVYLMVYDPDKPISVEPQRFDPPDGEVTDKIKLPPDVKIGFMAFPPEDMSAGG [r13_977_TrROS]	0.823 ± 0.048	0.966 ± 0.13	0.631 ± 0.033
SAGGSAGGSMKTKTIEIEIDGKKVRITIDSDGNITIEVPSEEVKEALKKLLPPGVKITKIEPVSAGGSAGGS [r12_9_TrROS_Hall]	1.94 ± 0.21	1.61 ± 0.1	2.15 ± 0.13
SAGGSAGGSAGGGSMLTVKVPETVPEYTSTDPATGKTYNVPPSVPVEVEGSPDSFSILLSAGGSAGGSAGGS [r10_46_JUSTAS]	1.01 ± 0.094	0.842 ± 0.095	1.21 ± 0.046
SAGSASSIKPISSTLDVRTDPETGKPVKATVYTYVLPSDGSSKQVPVPLSKKEPINLSPSDSYVTETRESAG [r5_950_JUSTAS]	-0.361 ± 0.22	-0.274 ± 0.27	-0.586 ± 0.17
SAGMKEVTVSKDELEEILKKLPPNKTYKVTLYNPNGPTYEFTVTVENDTIKINEGPPNKSENLKVTLVSSAG [r5_85_JUSTAS]	2 ± 0.051	2.32 ± 0.024	1.53 ± 0.036
